B1: GFP-ExoS^233–419 (domain or fragment)
chain: ADKALADGLVKRFGADAEKYLGRQPGGIHSDAEVMALGLYTGIHYADLNRALRQGQELDAGQKLIDQGMSAAFEKSGQAEQVVKTFRGTRGGDAFNAVEEGKVGHDDGYLSTSLNPGVARSFGQGTISTVFGRSGIDVSGISNYKNEKEILYNKETDMRVLLSASDEQGVTRRVLEEAALGEQSGHS
B2: 14-3-3β (purified alone) (natural protein)
chain: MTMDKSELVQKAKLAEQAERYDDMAAAMKAVTEQGHELSNEERNLLSVAYKNVVGARRSSWRVISSIEQKTERNEKKQQMGKEYREKIEAELQDICNDVLELLDKYLIPNATQPESKVFYLKMKGDYFRYLSEVASGDNKQTTVSNSQQAYQEAFEISKKEMQPTHPIRLGLALNFSVFYYEILNSPEKACSLAKTAFDEAIAELDTLNEESYKDSTLIMQLLRDNLTLWTSENQGDEG

The experiment “14-3-3β (purified alone)” addresses B2. Description: FP.
The next experiment concerns the target GFP-ExoS^419-453. Description: FP.

Where only a bound is given, the exact number is not on record here.

Regarding B1, the Kd with 14-3-3β (purified alone) was over 100 nM. As for B2, the Kd in the experiment with GFP-ExoS^419-453 is about 370 nM.

By Kd is commonly meant the concentration at which binding is half-saturated. Low readings indicate tighter binding, high ones weaker binding.

Values taken from publication PMC6141617 (2018).
